Results from patent publication US20260055205A1 (published 2026).
Each block holds one binder with its values, some of them ahead of it.

What was measured:
[1] = biological target: T1, human PSMA-Fc (human, UniProt Q04609 44-750); test: Octet
T1 construct: also called Human PSMA-Fc fusion

[2] = biological target: T1, human PSMA-Fc; test: Octet; remark: listed apart in the source
[3] = biological target: T2, human PSMA (human, UniProt Q04609 44-750, limits assumed); test: BLI or SPR
T2 construct: also called huPSMA; hPSMA

[4] = biological target: T3, cynomolgus monkey PSMA (cynomolgus monkey, UniProt A0A2K5VNZ0 44-750); test: BLI or SPR
T3 construct: also called cyPSMA; cyno PSMA

[5] = biological target: T4, human CD3 epsilon (human, UniProt P07766 23-126, limits assumed); test: BLI or SPR
T4 construct: also called huCD3e

[6] = biological target: T5, cynomolgus monkey CD3 epsilon (cynomolgus monkey, UniProt Q95LI5 22-117, limits assumed); test: BLI or SPR
T5 construct: also called cyCD3e; cyno CD3
T5 sequence (looked up): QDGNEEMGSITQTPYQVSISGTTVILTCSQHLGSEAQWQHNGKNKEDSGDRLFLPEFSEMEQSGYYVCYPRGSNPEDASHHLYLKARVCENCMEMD

[7] = biological target: T1, human PSMA-Fc; test: Octet, PSMA-Fc
Protocol: Binding affinity of select PSMA PTE variants was tested by Octet.

[8] = biological target: T2, human PSMA; test: binding screen

T2 sequence (Q04609 44-750 limits assumed): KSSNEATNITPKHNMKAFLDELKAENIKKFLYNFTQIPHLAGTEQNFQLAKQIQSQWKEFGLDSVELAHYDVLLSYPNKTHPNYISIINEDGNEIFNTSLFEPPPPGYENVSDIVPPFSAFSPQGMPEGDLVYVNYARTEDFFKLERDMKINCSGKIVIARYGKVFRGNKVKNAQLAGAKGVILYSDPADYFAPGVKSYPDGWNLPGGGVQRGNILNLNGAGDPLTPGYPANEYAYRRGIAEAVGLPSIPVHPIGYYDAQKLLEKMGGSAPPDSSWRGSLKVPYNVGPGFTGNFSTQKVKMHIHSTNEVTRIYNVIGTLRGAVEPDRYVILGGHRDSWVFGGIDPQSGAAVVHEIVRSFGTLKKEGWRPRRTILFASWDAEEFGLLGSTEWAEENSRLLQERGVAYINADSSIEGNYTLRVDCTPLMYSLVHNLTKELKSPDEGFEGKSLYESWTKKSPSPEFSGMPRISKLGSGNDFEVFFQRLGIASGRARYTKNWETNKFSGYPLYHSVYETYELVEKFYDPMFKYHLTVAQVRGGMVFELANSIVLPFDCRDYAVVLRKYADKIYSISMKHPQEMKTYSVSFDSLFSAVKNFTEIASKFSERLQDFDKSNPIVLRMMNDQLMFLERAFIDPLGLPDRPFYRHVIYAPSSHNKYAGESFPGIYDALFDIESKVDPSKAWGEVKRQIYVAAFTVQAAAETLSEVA
T1 sequence (Q04609 44-750 limits assumed): as above
T4 sequence (P07766 23-126 limits assumed): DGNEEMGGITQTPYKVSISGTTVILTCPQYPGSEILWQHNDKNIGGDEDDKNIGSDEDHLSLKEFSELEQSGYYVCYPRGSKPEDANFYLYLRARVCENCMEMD

Kd [1]: 2.4 nM
Kd [2]: 2.4 nM
koff [2]: 0.00018 s⁻¹
kon [2]: 76000 M⁻¹ s⁻¹
B1: uTCE of AC3356 (bispecific antibody)
chain: QVQLVESGGGVVQPGRSLRLSCAASGRTFGIYVMGWVRQAPGKEREFVAAISWSGSNRLVSDSVKGRFTISRDNSKNTLYLQMNSLRAEDTAVYYCAASNRLYGRTWYDFNESDYWGQGTQVTVSSGGGGSGGGSEVQLLESGGGIVQPGGSLKLSCAASGFTFNTYAMNWVRQAPGKGLEWVARIRSKYNNYATYYADSVKDRFTISRDDSKNTVYLQMNNLKTEDTAVYYCVRHENFGNSYVSWFAHWGQGTLVTVSSGATPPETGAETESPGETTGGSAESEPPGEGELVVTQEPSLTVSPGGTVTLTCRSSNGAVTSSNYANWVQQKPGQAPRGLIGGTNKRAPGTPARFSGSLLGGKAALTLSGVQPEDEAVYYCALWYPNLWVFGGGTKLTVL
notes: CD3.23 in VH-VL order; also called PSMA.5 (domain swap)

Kd [3]: 353 nM
koff [3]: 0.012 s⁻¹
kon [3]: 35000 M⁻¹ s⁻¹
Kd [4]: 2900 nM
koff [4]: 0.039 s⁻¹
kon [4]: 14000 M⁻¹ s⁻¹
Kd [5]: 34.4 nM
koff [5]: 0.1 s⁻¹
kon [5]: 3.2e+06 M⁻¹ s⁻¹
Kd [6]: 26.7 nM
koff [6]: 0.1 s⁻¹
kon [6]: 3.4e+06 M⁻¹ s⁻¹
B2: AMX-500(1x-C) (bispecific antibody)
chain: GTSESATPESQVQLVESGGGVVQPGRSLRLSCAASGRTFGIYVWGWFRQAPGKEREFVGAMSWSGSNRKVSDSVKGRFTISRDNSKNTLYLQMNSLRAEDTAVYYCAASNKEYGRTWYDFNESDYWGQGTQVTVSSGGGGSGGGSELVVTQEPSLTVSPGGTVTLTCRSSNGAVTSSNYANWVQQKPGQAPRGLIGGTNKRAPGTPARFSGSLLGGKAALTLSGVQPEDEAVYYCALWYPNLWVFGGGTKLTVLSESATPESGPGTSPGATPESGPGTSESATPEVQLVESGGGIVQPGGSLRLSCAASGFTFSTYAMNWVRQAPGKGLEWVGRIRTKRNNYATYYADSVKGRFTISRDDSKNTVYLQMNSLKTEDTAVYYCVRHENFGNSYVSWFAHWGQGTLVTVSSGTATPESGPGEAGRSASHTPAGLTGPATPESGPGTSESATPESGPGSPAGSPTSTEEGTSESATPESGPGSEPATSGSETPGTSESATPESGPGTSTEPSEGSAPGTSTEPSEGSAPGTSTEPSEGSAPGTSTEPSEGSAPGTSTEPSEGSAPGTSTEPSEGSAPGSPAGSPTSTEEGTSTEPSEGSAPGTSESATPESGPGSEPATSGSETPGTSESATPESGPGSEPATSGSETPGTSESATPESGPGTSTEPSEGSAPGTSESATPESGPGSPAGSPTSTEEGSPAGSPTSTEEGSPAGSPTSTEEGTSESATPESGPGTSTEPSEGSAPGTSESATPESGPGSEPATSGSETPGTSESATPESGPGSEPATSGSETPGTSESATPESGPGTSTEPSEGSAPGSPAGSPTSTEEGTSESATPESGPGSEPATSGSETPGTSESATPESGPGSPAGSPTSTEEGSPAGSPTSTEEGTSTEPSEGSAPGTSESATPESGPGTSESATPESGPGTSPSATPESGPGSEPATSGSETPGSEPATSGSETPGSPAGSPTSTEEGTSTEPSEGSAPGTSTEPSEGSAPGSEPATSGSETPGTSESAGEPEA
notes: Lacks the mask linked to the PSMA domain

Kd [5]: 90 nM
Kd [6]: 70 nM
B3: AMX-500 (bispecific antibody)
chain: ASSATPESGPGTSTEPSEGSAPGTSESATPESGPGSGPGTSESATPGTSESATPESGPGSEPATSGSETPGTSESATPESGPGTSTEPSEGSAPGSPAGSPTSTEEGTSESATPESGPGSEPATSGSETPGTSESATPESGPGSPAGSPTSTEEGSPAGSPTSTEEGTSTEPSEGSAPGTSESATPESGPGTSESATPESGPGTSESATPESGPGSEPATSGSETPGSEPATSGSETPGSPAGSPTSTEEGTSTEPSEGSAPGTSTEPSEGSAPGSEPATSGSETPGTSESATPEAGRSASHTPAGLTGPGTSESATPESQVQLVESGGGVVQPGRSLRLSCAASGRTFGIYVWGWFRQAPGKEREFVGAMSWSGSNRKVSDSVKGRFTISRDNSKNTLYLQMNSLRAEDTAVYYCAASNKEYGRTWYDFNESDYWGQGTQVTVSSGGGGSGGGSELVVTQEPSLTVSPGGTVTLTCRSSNGAVTSSNYANWVQQKPGQAPRGLIGGTNKRAPGTPARFSGSLLGGKAALTLSGVQPEDEAVYYCALWYPNLWVFGGGTKLTVLSESATPESGPGTSPGATPESGPGTSESATPEVQLVESGGGIVQPGGSLRLSCAASGFTFSTYAMNWVRQAPGKGLEWVGRIRTKRNNYATYYADSVKGRFTISRDDSKNTVYLQMNSLKTEDTAVYYCVRHENFGNSYVSWFAHWGQGTLVTVSSGTATPESGPGEAGRSASHTPAGLTGPATPESGPGTSESATPESGPGSPAGSPTSTEEGTSESATPESGPGSEPATSGSETPGTSESATPESGPGTSTEPSEGSAPGTSTEPSEGSAPGTSTEPSEGSAPGTSTEPSEGSAPGTSTEPSEGSAPGTSTEPSEGSAPGSPAGSPTSTEEGTSTEPSEGSAPGTSESATPESGPGSEPATSGSETPGTSESATPESGPGSEPATSGSETPGTSESATPESGPGTSTEPSEGSAPGTSESATPESGPGSPAGSPTSTEEGSPAGSPTSTEEGSPAGSPTSTEEGTSESATPESGPGTSTEPSEGSAPGTSESATPESGPGSEPATSGSETPGTSESATPESGPGSEPATSGSETPGTSESATPESGPGTSTEPSEGSAPGSPAGSPTSTEEGTSESATPESGPGSEPATSGSETPGTSESATPESGPGSPAGSPTSTEEGSPAGSPTSTEEGTSTEPSEGSAPGTSESATPESGPGTSESATPESGPGTSPSATPESGPGSEPATSGSETPGSEPATSGSETPGSPAGSPTSTEEGTSTEPSEGSAPGTSTEPSEGSAPGSEPATSGSETPGTSESAGEPEA
notes: also called AC3896; AMX-500-P4

Kd [3]: 230 nM
koff [3]: 0.012 s⁻¹
kon [3]: 50000 M⁻¹ s⁻¹
Kd [4]: 2400 nM
koff [4]: 0.039 s⁻¹
kon [4]: 16000 M⁻¹ s⁻¹
Kd [5]: 46.3 nM
koff [5]: 0.1 s⁻¹
kon [5]: 2.8e+06 M⁻¹ s⁻¹
Kd [6]: 38 nM
koff [6]: 0.1 s⁻¹
kon [6]: 2.9e+06 M⁻¹ s⁻¹
B4: AMX-500(1x-N) (bispecific antibody)
chain: ASSATPESGPGTSTEPSEGSAPGTSESATPESGPGSGPGTSESATPGTSESATPESGPGSEPATSGSETPGTSESATPESGPGTSTEPSEGSAPGSPAGSPTSTEEGTSESATPESGPGSEPATSGSETPGTSESATPESGPGSPAGSPTSTEEGSPAGSPTSTEEGTSTEPSEGSAPGTSESATPESGPGTSESATPESGPGTSESATPESGPGSEPATSGSETPGSEPATSGSETPGSPAGSPTSTEEGTSTEPSEGSAPGTSTEPSEGSAPGSEPATSGSETPGTSESATPEAGRSASHTPAGLTGPGTSESATPESQVQLVESGGGVVQPGRSLRLSCAASGRTFGIYVWGWFRQAPGKEREFVGAMSWSGSNRKVSDSVKGRFTISRDNSKNTLYLQMNSLRAEDTAVYYCAASNKEYGRTWYDFNESDYWGQGTQVTVSSGGGGSGGGSELVVTQEPSLTVSPGGTVTLTCRSSNGAVTSSNYANWVQQKPGQAPRGLIGGTNKRAPGTPARFSGSLLGGKAALTLSGVQPEDEAVYYCALWYPNLWVFGGGTKLTVLSESATPESGPGTSPGATPESGPGTSESATPEVQLVESGGGIVQPGGSLRLSCAASGFTFSTYAMNWVRQAPGKGLEWVGRIRTKRNNYATYYADSVKGRFTISRDDSKNTVYLQMNSLKTEDTAVYYCVRHENFGNSYVSWFAHWGQGTLVTVSSGTATPESGPG
notes: Lacks the mask linked to the CD3 domain

Kd [1]: 2.7 nM
Kd [7]: 2.7 nM
koff [7]: 0.00028 s⁻¹
kon [7]: 104000 M⁻¹ s⁻¹
B5: uTCE of AC3265 (bispecific antibody)
chain: QVQLVESGGGVVQPGRSLRLSCAASGRTFGIYVMGWYRQAPGKEREFVAAISWSGSNRLVSDSVKGRFTISRDNSKNTLYLQMNSLRAEDTAVYYCAASNRLYGRTWYDFNESDYWGQGTQVTVSSGGGGSGGGSELVVTQEPSLTVSPGGTVTLTCRSSNGAVTSSNYANWVQQKPGQAPRGLIGGTNKRAPGTPARFSGSLLGGKAALTLSGVQPEDEAVYYCALWYPNLWVFGGGTKLTVLGATPPETGAETESPGETTGGSAESEPPGEGEVQLLESGGGIVQPGGSLKLSCAASGFTFNTYAMNWVRQAPGKGLEWVARIRSKYNNYATYYADSVKDRFTISRDDSKNTVYLQMNNLKTEDTAVYYCVRHENFGNSYVSWFAHWGQGTLVTVSS
notes: Linker given only as 9 residues; also called PSMA.55

Kd [1]: 3.2 nM
Kd [8]: 4.1 nM
Kd [7]: 3.2 nM
koff [7]: 0.000248 s⁻¹
kon [7]: 80000 M⁻¹ s⁻¹
B6: uTCE of AC3329 (bispecific antibody)
chain: QVQLVESGGGVVQPGRSLRLSCAASGRTFGIYVMGWVRQAPGKEREFVAAISWSGSNRKVSDSVKGRFTISRDNSKNTLYLQMNSLRAEDTAVYYCAASNRLYGRTWYDFNESDYWGQGTQVTVSSGGGGSGGGSELVVTQEPSLTVSPGGTVTLTCRSSNGAVTSSNYANWVQQKPGQAPRGLIGGTNKRAPGTPARFSGSLLGGKAALTLSGVQPEDEAVYYCALWYPNLWVFGGGTKLTVLGATPPETGAETESPGETTGGSAESEPPGEGEVQLLESGGGIVQPGGSLKLSCAASGFTFNTYAMNWVRQAPGKGLEWVARIRSKYNNYATYYADSVKDRFTISRDDSKNTVYLQMNNLKTEDTAVYYCVRHENFGNSYVSWFAHWGQGTLVTVSS
notes: also called PSMA.119

Kd [1]: 5.6 nM
Kd [7]: 5.6 nM
koff [7]: 0.000479 s⁻¹
kon [7]: 86600 M⁻¹ s⁻¹
B7: uTCE of AC3342 (bispecific antibody)
chain: QVQLVESGGGVVQPGRSLRLSCAASGRTFGIYVMGWVRQAPGKEREFVAAISWSGSNRLVSDSVKGRFTISRDNSKNTLYLQMNSLRAEDTAVYYCAASNKLYGRTWYDFNESDYWGQGTQVTVSSGGGGSGGGSELVVTQEPSLTVSPGGTVTLTCRSSNGAVTSSNYANWVQQKPGQAPRGLIGGTNKRAPGTPARFSGSLLGGKAALTLSGVQPEDEAVYYCALWYPNLWVFGGGTKLTVLGATPPETGAETESPGETTGGSAESEPPGEGEVQLLESGGGIVQPGGSLKLSCAASGFTFNTYAMNWVRQAPGKGLEWVARIRSKYNNYATYYADSVKDRFTISRDDSKNTVYLQMNNLKTEDTAVYYCVRHENFGNSYVSWFAHWGQGTLVTVSS
notes: Linker given only as 9 residues; also called PSMA.132
